Molecular target: FMDV O/Mya/98 146S antigen (Foot-and-mouth disease virus serotype …, UniProt G8JKC2, strain)
Experiment: cell-based or functional assay

Binder	virus neutralizing test on BHK-21 cells, IC50 [µg/mL]
B73 (antibody, V domains shown) VH: QVQLRESGPSLVKPSQTLSLTCTVSGFSLSSYDVGWVRQAPGKALECLGSITNRGKTGYNPALKSRLSITKDNSKSQVSLSLNSVTTEDTATYYCAKLNSGGYGIDGNGCYAFGSNYNLYVDAWGQGLLITVSS VL: QAVLTQPSSVSGSLGQRVSITCSGSSSNLGTYNVGWYQQVPGSGLRTIIYGSSSRPSGVPDRFSGSRSGNTATLTISSLQAEDEADYFCTAYDHSISTAVSGSGTTLTVL	3.28
B57 (antibody, V domains shown) VH: QVQLRESGPSLVKPSQTLSLTCTVSGFSLSGYAVTWVRRAPGQALECLGGISRGGLTNNNPALRSRVSITKDDSKSQVSLSVSTVTPEDTATYYCVRLGATKFGDYGCYGYGLYVDTWGQGLPVTVSS VL: QAVLTQPSSVSGSLGQRVSITCSGSSSNIGRHGVSWYQQVPGSGLRTIIYSGNSRPSGVPDRFSGSKSGNTATLTISSLLAEDEADYFCAADDIVSRTTFFGSVTTLTVL	2.6
B66 (antibody, V domains shown) VH: QVQLRESGPSLVKPSQTLSLTCTVSGFSLTTYSVNWVRQTPGKALECLGGITSGGNAYYQPSLKSRLSITKDNSKNQVSLSINSATPEDTATYYCGKLSGTGVCEGGCACGHDPHVDAWGQGVLVTVSS VL: QAVLTQPSSVSGSLGQRISITCSGSSNNVGLYNVGWYQQIPGSGLRTIIYAGDRRPSGVPDRFSGSEFGDTATLTISSLQAEDEADYFCVTYDSTISAAVFGSGTTLTVL	3.13
F169 (antibody, V domains shown) VH: QVQLRESGPSLVKPSQTLSLTCTVSGFSLSTYGVAWVRQAPGKALEWIGGISGRGSGSEYYNPPLQSRLSITKDTSRSQVFLSVRTVAPEDTATYYCVKCIDSWCNYDDSGDIDAWGQGLLVTVSS VL: QAVLTQPSSVSGSLGQRVSITCSGSTSNIGKCDVGWYQRVPESGLRTIIYGNSKRPSGVPDRFSGSKSGTVATLTISSLQAEDEAEYFCATGDYSLRTAVFGSGTTLIVL	5.56
E18 (antibody, V domains shown) VH: QVQLRESGPSLVTPSQTLSLTCAVSGGSLSTHDVVWVRQAPGRALEWVGGISSRGTTYYNPALKSRLSITQDLSKNQVSLSVGSVTPDDTATYYCAKDLCGGRINGCYNDGYYYSLRVDAWGQGLLVTVSS VL: QAVLAQPSSVSGSLGQRVSITCSGSSNNIGSYGVGWYQQVPGSGLRTIIYGSSNRPSGVPDRFSGSKSGNTATLTISSLQAEDEADYFCAASDYSSNTVVFASGTTLTVL	0.78
B77 (antibody, V domains shown) VH: QVQLRESGPSLVKPSQTLSLTCTISGFSLSSYTIGWVRQAPGKALEWIGDMSNGGMPYYNPALKSRLSITKHNSKSQVRLSVSSVTPEDTATYYCAKSRYTGDGSIGLYGVDAWGQGLLITVSS VL: QAVLTQPSSVSGSLGQRVSITCSGTYSNVGTGNYVSWFQQIPGSAPRTLIYSVTNRASGVPDRFSGSRSGHTATLTISSLQAEDEADYFCLSWQSGNTALFGSGTTLTVL	3.91
F128 (antibody, V domains shown) VH: QVQLRESGPSLVKPSQTLSLTCTVSGFSLGTYTVTWVRQAPGKALEWVGEISGGGDTDYNPALKSRLSITKHNSKSQVSLSVSSVTPEDTATYYCARCYSTCGCGLSCTSEDSYYVNAWGQGLLVTVSS VL: QAVLTQPSSVSGSLGQRVSITCSGSSSNIGSYNVGWYQQVPGSGLTTIIYGTNNRPSGVPDRFSGSKSGNTATLTISSLRAEDEADYFCVTYDSTSSTIFGTGTTLTVL	0.98
A35 (antibody, V domains shown) VH: QVQLRESGPSLVKPSQTLSLTCTVSGFSLSSNGVIWVRQAPGKALEWLGGICGGGSTSFNPSLKSRLTITKDNSKNQVSLSVRSVTPEDTATYYCARSCGSYRDAWYDCASDGYRYHNYVDAW VL: QAVLTQPSSVSGSLGQRVSITCSGSNNNIGSYAVGWYQQVPGSGLRTIIYGSTIRPSGVPDRFSGSKSRSTATLTISSLQAEDEADYFCATADYSSSTVVFGSGTTLTVL	1.43
B82 (antibody, V domains shown) VH: QVQLRESGPSLVKPSQTLSLTCTVSGFSLSNYAVGWVRQAPGKALEYLGGVRLRGRPDYNPALESRLSITKDNSKSQVSLSVSSVTLEDTATYYCAKSSSGLWDGGCCGGSTSCYVDSWGQGLLVTVSS VL: QAVLTQPSSVSGSLGQRVSITCSGSSSNIGTYTVGWYQQVPGSGLRTIIYSNNNRPSGVPDRFSGSKSGNTATLTISSLQAEDEADYFCVTYESSISTALFGRGTTLTVL	4.17
C9 (antibody, V domains shown) VH: QVQLRESGPSPVKPSQTLSLTCTVSGFSLSSYAVAWVRQAPGKALEWVAGISGGGSTSYNAALKSRLRITKDNSKSQVALSLSSVTSEDTATYYCVKCANDYGSYFCYNYDYGYDFYVDAWGQGLLVTVSS VL: QAVLTQPSSVSGSLGQRVSITCAGSSSNIGTYSVGWYQQVPGSGLTTIIYETTGRPKGVPDRFSGSKSGNTATLTITSLQAEDEADYFCVTYELGSGAVFGSGTTLTVL	1.82
C5 (antibody, V domains shown) VH: QVQLRESGPSLVKPSQTLSLTCTVSGFSLSSYGVGWVRQAPGRALEFLADIYSDGSTTYNLALKSRLSIMKDNSKSEVSLSLSSVTTEDTATYYCAKSSRGVGWGDGLHYNENDAGAWGQGLLVTVSS VL: QAVLSQPPSVSGSLGQTVTIPCTGSSNNIGILGVSWYQQIPGSAPRTLVYNNNKRPSGVADRFSGTKSGNTGTLTIASLQAEDEADYYCASADPNFGGGTRVTVL	4.69
A19 (antibody, V domains shown) VH: QVQLRESGPSLVKPSQTLSLTCTTSGFSLSSYAVGWVRQAPGKALEWVGGISSGGKTCPSPALKTRLSITKLNSRGQVSLSVGSVSTEDTATYYCVKFFSGGWTYSCYGIDFGSVDAWGQGVLVTVSS VL: QAVLTQPSSVSGSLGQRVSITCSGSSNNIGSYGVGWYQQVPGSGLRTIIYGSTSRPSGVPDRFSGSKSGNTATLTISSLQAEDEADYFCAAGDDSSSSVDVFGSGTTLTVL	17.9
F28 (antibody, V domains shown) VH: QVQLRESGPSLVKPSQTLSLTCTVSGFSLNTYSVYWVRQVPGKALECIGGISSREARGYNPALKPRLSITKDNSKSQVSLSLSSVTTDDTATYYCAKAARGYAFTCGGISSHSDHYVDAWGQGLLVTVSS VL: QAVLTQPSSVSGSLGQRVSISCSGSSSNVGTGNHVSWFQQIPGSAPRTLIYGATRRLSGVPDRFSGSRSGNTATLTISSLQAEDEADYFCASWQSDSTTVFGSGTTLTVL	3.33
B74 (antibody) VH: QVQLRESGPGLVKPSQTLSLTCTASGFSLSIKAVGWVRQAPGKALEWLGSIDTGGNTGYNPGLKSRLSITKDNSKSQVSLSLSSVTTEDSATYYCATVHQETKKSCSDGYYYRNECGAYGDCTVGNCCCSYASDYCNWCDFRRVTPTYTYEHHVEAWGQGLLVTVSS VL: QAVLTQPSSVSGSLGQRVSITCSGSSGNVGNGYVSWYQLIPGSAPRTLIYGDTTRVSGVPDRFSGSRSGNTATLTISSLQAEDEADYFCASAEDSSNNAVFGSGTTLTVL	7.81
E34 (antibody, V domains shown) VH: QVQLRESGPSLVKPSQTLSLTCTVSGFSLNDYNVGWVRQAPGKALECLGGYKADGSTNYNSALKSRLSITKDSSKKQVSLSLSSVTTEDTATYYCAKCPSRWGCDYCDNYDFWGQGLLVTVSS VL: QAVLTQPSSVSGSLGQRVSITCSGSSSDVGKGYVSWYQLMPGSGPRTLIYGDTSRISGVPDRFSGSRSGNTATLTISSLQAEDEADYFCASADDSSSNAVFGSGTTLTVL	3.13
F103 (antibody) VH: QVQLRESGPSLVKPSQTLSLTCTASGFSLSDKAVGWVRQAPGKALEWLGSIDTGGNSGYNPGLKSRLSITKDNSKSQASLSVSSVITGDSATYYCAIVHQETVRKTSGSDAYTCPDGCVLSPACSRERRCLCGTWPRDYCVDHIQSSTYNFYVEAWGQGLLVTVSS VL: QAVLTQPSSVSESLGQRVSITCSGISSSVGNGYVSWYQLIPGSAPRTLIYGDTSRASGVPDRFSGSRSGNTATLTISSLQAEDEADYFCASADGSSSNAIFGSGTTLTVL	6.22
B83 (antibody) VH: QVQLRESGPSLVKPSQTLSLTCTASGFSLSDKAVGWVRQAPGKALEWLGSIDTGGSTGYNPGLKSRLSITKDTSKTQVSLSVSSVTTEDSATYYCTNVHQKTTTERSCPDLGYKYECGNNCCWYSSCRGCIQGTYTSTYNFYVHAWGQGLRVTVSS VL: QAVLTQPSSVSGSLGQRVSITCSGSSSNVGNGYVSWYQLIPGSGPRTLIYGDTSRASGVPDRFSGSRSGNTATLTISSLQAEDEADYFCASTEDSSSNVVFGSGTTLTVL	12.2
E50 (antibody) VH: QVQLRESGPSLVKPSQTLSLTCTASGFSLSDKAVGWVRQAPGKALEWLGSVDTSGSTGYNPGLESRLIITKDNSKSRVSLSVHSVTSEDSATYYCVTVHQKSRDEKSCPDGYIDGAGCKYGWPCSDQDCCVCSSCVYGYSGMNCVPARYSESYEWNVEAWGQGLLVTVSS VL: QAVLTQPSSVSGSLGQRVSITCSGSSTNVGNGYVSWYQLIPGSAPRTLIYGDTTRASGVPDRFSGSRSGNTATLTISSLQAEDEADYSCASAEDSSSNAVFGSGTTLTVL	11.5
E54 (antibody) VH: QVHLRESGPSLVKPSQTLSLTCTASGFSLSDRAVGWVRQAPGKALEWLGSIDTGGTTGYNPGLKSRLRITKDNSKSQVSLSVSTVTTDDSATYYCGAVYQTTETKTTCPEGYSNTGDCDDDCCCWGSDCSRYARWKRYRGGWFSSDYIVTEVYEFHVDAWGQGLLVSVSS VL: QAVLTQPSSVSGSLGQRVSITCSGSSSNVGNGYVSWYQLIPGSTPRTLIYGDTSPASGVPDRFSGSRSGNTATLTIISFQAEDEADYFCASAEDSSSNVVFGSGTTLTVL	3.65
C4 (antibody, V domains shown) VH: QVQLRESGPSLVKPSQTLFLTCTVSGFSLTSYSVNWVRQTPGKMLECLGGIATSGSTGYNPVLKSRLRITKDNSKSQVSLSVSNVTPEDTATYYCAKWSSRGGYDCGVHSSDYSYLDAWGQGLLVTVSS VL: QAVLTQPSSVSASLGQRVSITCSGSSSNIGRYGATWYQQVPGSGLRTIIYGSSRRPSGVPDRFSGSKSGNTVTLTISSLQPEDEADYFCAAYDISTNAVFGSGTTLTLL	2.86
